Laboratory results reported in PMC3910249 (Molecular cell, 2013).

Biological target: T1, FtsY NG domain (SRP receptor FtsY, residues 196-498) (E. coli, UniProt P10121 196-497)
T1 sequence (looked up): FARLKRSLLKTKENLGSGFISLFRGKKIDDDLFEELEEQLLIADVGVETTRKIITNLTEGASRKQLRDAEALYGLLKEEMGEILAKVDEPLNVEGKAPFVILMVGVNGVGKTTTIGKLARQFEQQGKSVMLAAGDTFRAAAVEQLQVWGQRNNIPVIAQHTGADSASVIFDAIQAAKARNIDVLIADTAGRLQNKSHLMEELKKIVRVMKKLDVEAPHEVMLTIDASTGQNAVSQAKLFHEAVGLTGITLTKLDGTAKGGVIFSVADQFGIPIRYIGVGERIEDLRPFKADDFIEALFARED
Experiment: SEC

binding result: binds
B1: Ffh NG domain (signal recognition particle protein Ffh, residues 1-298) (domain or fragment, E. coli, UniProt P0AGD7 1-298, looked up)
chain: MFDNLTDRLSRTLRNISGRGRLTEDNVKDTLREVRMALLEADVALPVVREFINRVKEKAVGHEVNKSLTPGQEFVKIVRNELVAAMGEENQTLNLAAQPPAVVLMAGLQGAGKTTSVGKLGKFLREKHKKKVLVVSADVYRPAAIKQLETLAEQVGVDFFPSDVGQKPVDIVNAALKEAKLKFYDVLLVDTAGRLHVDEAMMDEIKQVHASINPVETLFVVDAMTGQDAANTAKAFNEALPLTGVVLTKVDGDARGGAALSIRHITGKPIKFLGVGEKTEALEPFHPDRIASRILGMG
